According to patent publication US20110243955A1 (FUSION ANTIBODIES, published 2011):

Experiments:
[1] = target: T1, recombinant human Cat S (Calbiochem) (human, UniProt P25774 115-331, limits assumed); assay: fluorimetric enzyme assay with Cbz-Val-Val-Arg-AMC; progress curves of a slow-binding inhibitor fitted by non-linear regression (Morrison and Walsh, GraFit)
T1 construct: Bought enzyme used in the fluorimetric activity assays; also called cathepsin S
Description: FIG. 12. Quantification of inhibitory activity of Cat S MAb1 (Mab 1E11). Rates from the progress curves of (Mab 1E11) [FIG. 11], which were indicative of a slow binding inhibitor, were fitted by non-linear regression using GraFit software according to the method of Morrison and Walsh, 1988.
The inhibitory effect of the monoclonal antibodies were determined by a flurometric assay, using a Cat S synthetic substrate Z-Val-Val-Arg-AMC (Bachem) and recombinant human Cat S (Calbiochem). The recombinant Cat S enzyme was activated at 37° C. in sodium acetate buffer (100 mM sodium acetate, 1 mM EDTA, 0.1% Brij90, pH 5.5), and 2 mM dithiothreitol (DTT) for 30 mins prior to assay. Assays were carried out using 190 μl of sodium acetate/DTT buffer (90:1), 1 μl of activated Cat S, 12.5 μl of 10 mM Cbz-Val-Val-Arg-AMC substrate and 50 μl of non-purified monoclonal antibody supernatant. Fluorescence was measured at 375 nm excitation and 460 nm emission wavelengths every 5 mins for 4 hrs (FIG. 8). […]
The purified monoclonal antibodies were analysed by flurometric assay for quantification of their ability to inhibit the activity of Cat S. The principles of this assay are the same as that previously used. Fluorescence was measured at 375 nm excitation and 460 nm emission wavelengths every minute for 1 hr. […]

[2] = target: T2, human cathepsin K (recombinant) (human, UniProt P43235 115-329, limits assumed); assay: western blot of recombinant cathepsins
T2 construct: Called 'purified CatK' in the activity assay; also called CatK; Cat K
T2 sequence (looked up): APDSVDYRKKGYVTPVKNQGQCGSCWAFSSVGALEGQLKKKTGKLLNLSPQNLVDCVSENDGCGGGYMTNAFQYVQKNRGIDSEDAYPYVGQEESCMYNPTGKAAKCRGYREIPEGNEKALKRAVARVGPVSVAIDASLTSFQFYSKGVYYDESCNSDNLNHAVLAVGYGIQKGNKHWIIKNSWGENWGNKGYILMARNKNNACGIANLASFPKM
Description: (§1) FIG. 15 MAb1 specifically binds Cat S on western blot. The antibody was used to probe against human cathepsin B, L, S and K (100 ng each).
(§2) Western blots were performed as described before to show specificity of the antibody binding to Cat S and not to CatB, L or K. Briefly, 100 ng of recombinant Cat S, K, L and B were loaded onto a SDS-PAGE gel, then transferred onto Hybond-C Extra nitrocellulose membrane (Amersham. Biosciences). The membrane was blocked by incubation in PBS/5% marvel for 1 hr at room temperature, after which it was rinsed briefly in PBS. The monoclonal antibodies were used at a 1:500 dilution in PBS and incubated on the membrane overnight at 4° C. while gently rocking. The blot was then rinsed three times with PBS/1% marvel and 0.1% Tween-20 and then incubated with the goat anti-mouse HRP conjugated secondary antibody at a 1:3000 dilution for 1 hr at room temperature while shaking. The blot was then rinsed three times with the PBS/1% marvel and 0.1% Tween-20 solution, followed by a short rinse in PBS. The blot was incubated with ECL plus substrate (Amersham Biosciences) for 5 mins at room temperature before development using Kodak photographic film under safe light conditions (FIG. 15).

[3] = target: T3, human cathepsin L (recombinant) (human, UniProt P07711 114-333, limits assumed); assay: western blot of recombinant cathepsins
T3 construct: Called 'purified CatL' in the activity assay; also called CatL; Cat L
Description: as §1, §2

[4] = target: human cathepsin B (recombinant) (human, UniProt P07858 80-333); assay: western blot of recombinant cathepsins
Description: as §1, §2

T1 sequence (P25774 115-331 limits assumed): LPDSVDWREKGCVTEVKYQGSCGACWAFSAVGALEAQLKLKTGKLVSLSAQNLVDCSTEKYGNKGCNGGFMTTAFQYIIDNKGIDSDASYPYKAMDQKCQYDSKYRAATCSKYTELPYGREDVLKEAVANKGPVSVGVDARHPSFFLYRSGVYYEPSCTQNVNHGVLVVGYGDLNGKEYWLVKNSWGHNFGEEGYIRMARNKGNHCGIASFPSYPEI
T3 sequence (P07711 114-333 limits assumed): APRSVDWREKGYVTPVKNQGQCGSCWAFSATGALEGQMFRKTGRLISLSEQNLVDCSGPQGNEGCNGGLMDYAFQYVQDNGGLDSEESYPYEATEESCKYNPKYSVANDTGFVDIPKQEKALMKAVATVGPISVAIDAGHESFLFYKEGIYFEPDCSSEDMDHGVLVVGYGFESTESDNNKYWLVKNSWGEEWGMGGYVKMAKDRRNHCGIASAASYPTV

Ki [1]: 533 nM
binding result [2]: no binding
binding result [3]: no binding
binding result [4]: no binding
B1: Cat S inhibitory monoclonal antibody Mab 1E11 (antibody, V domains shown)
VH: VQLQESGGVLVKPGGSLKLSCAASGFAFSSYDMSWVRQTPEKRLEWVAYITTGGVNTYYPDTVKGRFTISRDNAKNTLYLQMSSLKSEDTAMYYCARHSYFDYWGQGTTVTVSS
VL: DVLMTQTPLSLPVSLGDQASISCRSSQSLVHSNGNTYLHWYLQKPGQSPKLLIYKVSNRFSGVPDRFSGSGSGTDFTLKISRVEAEDLGVYFCSQTTHVPPTFGSGTKLEIKR
notes: Whole mouse monoclonal antibody from a hybridoma (BALB/C mice), purified from supernatant; also called Cat S MAb1
